Assay results published in patent US20250085287A1 (ADICET THERAPEUTICS, published 2025).
Each block holds one molecule with its values, some of them ahead of it.

Columns and labels:
[1] = molecular target: recombinant human glypican-3 (rhGPC3) (human) (UniProt P51654); experiment: BLI; humanized GC33 captured on anti-human IgG-Fc biosensor, antigen as analyte from 100 nM, 1:3 dilutions, global 1:1 fit
[2] = molecular target: human GPC3 on tumor cells (membrane-associated GPC3 in FFPE xenograft tissue) (human) (UniProt P51654); experiment: IHC on hepatocellular carcinoma
[3] = molecular target: human GPC3 on tumor cells (membrane-associated GPC3 in FFPE xenograft tissue) (human) (UniProt P51654); experiment: IHC on FFPE xenograft tumor tissue, Huh7
[4] = molecular target: human GPC3 on tumor cells (membrane-associated GPC3 in FFPE xenograft tissue) (human) (UniProt P51654); experiment: IHC on FFPE xenograft tumor tissue, Hep3B
[5] = molecular target: human GPC3 on tumor cells (membrane-associated GPC3 in FFPE xenograft tissue) (human) (UniProt P51654); experiment: IHC on FFPE xenograft tumor tissue, HepG2
[6] = molecular target: human GPC3 on tumor cells (membrane-associated GPC3 in FFPE xenograft tissue) (human) (UniProt P51654); experiment: IHC on squamous cell carcinoma of the lung
[7] = molecular target: human GPC3 on tumor cells (membrane-associated GPC3 in FFPE xenograft tissue) (human) (UniProt P51654); experiment: IHC on FFPE xenograft tumor tissue, PP5 (PLC/PRF/5)
[8] = molecular target: human GPC3 on tumor cells (membrane-associated GPC3 in FFPE xenograft tissue) (human) (UniProt P51654); experiment: IHC on FFPE xenograft tumor tissue; Hep3B, table row 1
[9] = molecular target: human GPC3 on tumor cells (membrane-associated GPC3 in FFPE xenograft tissue) (human) (UniProt P51654); experiment: IHC on FFPE xenograft tumor tissue; Hep3B, table row 2
[10] = molecular target: human GPC3 on tumor cells (membrane-associated GPC3 in FFPE xenograft tissue) (human) (UniProt P51654); experiment: IHC on FFPE xenograft tumor tissue; Hep3B, table row 3
[11] = molecular target: human GPC3 on tumor cells (membrane-associated GPC3 in FFPE xenograft tissue) (human) (UniProt P51654); experiment: IHC on FFPE xenograft tumor tissue; HepG2, table row 4
[12] = molecular target: human GPC3 on tumor cells (membrane-associated GPC3 in FFPE xenograft tissue) (human) (UniProt P51654); experiment: IHC on FFPE xenograft tumor tissue; HepG2, table row 5
[13] = molecular target: human GPC3 on tumor cells (membrane-associated GPC3 in FFPE xenograft tissue) (human) (UniProt P51654); experiment: IHC on FFPE xenograft tumor tissue; HepG2, table row 6
[14] = molecular target: human GPC3 on tumor cells (membrane-associated GPC3 in FFPE xenograft tissue) (human) (UniProt P51654); experiment: IHC (DAB), implanted HepG2 tumor (GPC3hi), 1G12 at 0.5 µg/mL
[15] = molecular target: human GPC3 on tumor cells (membrane-associated GPC3 in FFPE xenograft tissue) (human) (UniProt P51654); experiment: IHC on FFPE xenograft tumor tissue, cytoplasmic staining; Hep3B, table row 1
[16] = molecular target: human GPC3 on tumor cells (membrane-associated GPC3 in FFPE xenograft tissue) (human) (UniProt P51654); experiment: IHC on FFPE xenograft tumor tissue, cytoplasmic staining; Hep3B, table row 2
[17] = molecular target: human GPC3 on tumor cells (membrane-associated GPC3 in FFPE xenograft tissue) (human) (UniProt P51654); experiment: IHC on FFPE xenograft tumor tissue, cytoplasmic staining; Hep3B, table row 3
[18] = molecular target: human GPC3 on tumor cells (membrane-associated GPC3 in FFPE xenograft tissue) (human) (UniProt P51654); experiment: IHC on FFPE xenograft tumor tissue, cytoplasmic staining; HepG2
[19] = molecular target: recombinant human glypican-3 (rhGPC3) (human) (UniProt P51654); experiment: BLI; antibody captured on IgG-Fc capture biosensor, antigen as analyte, global 1:1 fit
[20] = molecular target: human GPC3 on tumor cells (membrane-associated GPC3 in FFPE xenograft tissue) (human) (UniProt P51654); experiment: IHC (DAB), implanted PP5 tumor (GPC3lo), bottom row of images, 1G12 at 0.5 µg/mL
[21] = molecular target: human GPC3 on tumor cells (membrane-associated GPC3 in FFPE xenograft tissue) (human) (UniProt P51654); experiment: IHC (DAB), implanted PP5 tumor (GPC3lo), middle row of images, 1G12 at 0.5 µg/mL
[22] = molecular target: recombinant human glypican-3 (rhGPC3) (human) (UniProt P51654); experiment: BLI; antibody captured on IgG-Fc capture biosensor, antigen as analyte from 100 nM, 1:3 dilutions, global 1:1 fit
[23] = molecular target: human GPC3 on tumor cells (membrane-associated GPC3 in FFPE xenograft tissue) (human) (UniProt P51654); experiment: IHC on FFPE xenograft tumor tissue; HepG2, table row 5 (so in the source); the four percentages of the row add up to 105
[24] = molecular target: human GPC3 on tumor cells (membrane-associated GPC3 in FFPE xenograft tissue) (human) (UniProt P51654); experiment: IHC on FFPE xenograft tumor tissue; Hep3B, table row 3 (so in the source); does not fit the 90 and the 255 of the same row
[25] = molecular target: T1, recombinant human glypican-5 (rhGPC5) (human, UniProt P78333 25-551, limits assumed); experiment: western blot, primary antibody 1 ug/mL
T1 sequence (looked up): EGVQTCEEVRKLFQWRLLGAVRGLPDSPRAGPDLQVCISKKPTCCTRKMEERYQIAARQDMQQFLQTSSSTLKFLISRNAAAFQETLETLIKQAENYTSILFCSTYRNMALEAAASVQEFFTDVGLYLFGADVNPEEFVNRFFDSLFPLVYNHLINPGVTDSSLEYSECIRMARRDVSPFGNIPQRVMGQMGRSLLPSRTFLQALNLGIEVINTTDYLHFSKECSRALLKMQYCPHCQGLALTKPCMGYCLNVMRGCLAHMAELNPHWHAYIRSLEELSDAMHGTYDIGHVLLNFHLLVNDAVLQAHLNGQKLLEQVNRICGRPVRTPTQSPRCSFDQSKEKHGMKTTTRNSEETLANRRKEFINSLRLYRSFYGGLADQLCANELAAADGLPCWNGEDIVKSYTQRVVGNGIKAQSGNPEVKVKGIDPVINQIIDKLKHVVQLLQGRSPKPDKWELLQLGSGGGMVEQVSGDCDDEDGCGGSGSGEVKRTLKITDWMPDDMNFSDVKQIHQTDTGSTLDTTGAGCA

[26] = molecular target: T2, recombinant human glypican-6 (rhGPC6) (human, UniProt Q9Y625 24-529, limits assumed); experiment: western blot, primary antibody 1 ug/mL
T2 sequence (looked up): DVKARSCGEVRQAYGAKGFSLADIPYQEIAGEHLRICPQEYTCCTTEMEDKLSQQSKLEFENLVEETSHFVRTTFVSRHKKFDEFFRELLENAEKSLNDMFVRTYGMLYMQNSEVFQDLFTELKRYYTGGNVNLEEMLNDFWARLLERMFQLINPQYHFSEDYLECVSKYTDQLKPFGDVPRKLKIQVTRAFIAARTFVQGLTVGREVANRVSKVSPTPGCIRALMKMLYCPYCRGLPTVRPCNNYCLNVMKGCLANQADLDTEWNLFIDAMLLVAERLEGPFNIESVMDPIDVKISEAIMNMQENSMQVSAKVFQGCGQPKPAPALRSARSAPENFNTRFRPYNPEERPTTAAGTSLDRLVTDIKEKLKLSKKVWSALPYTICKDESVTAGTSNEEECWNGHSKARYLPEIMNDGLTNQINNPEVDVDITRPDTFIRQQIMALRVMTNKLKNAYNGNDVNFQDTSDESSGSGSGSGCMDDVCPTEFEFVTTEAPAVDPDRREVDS

[27] = molecular target: recombinant human glypican-3 (rhGPC3) (human) (UniProt P51654); experiment: BLI; antibody captured on anti-mouse IgG-Fc biosensor, antigen as analyte, global 1:1 fit
[28] = molecular target: recombinant human glypican-3 (rhGPC3) (human) (UniProt P51654); experiment: BLI in-tandem cross-competition; buffer only, no saturating antibody (maximal binding reference)
[29] = molecular target: recombinant human glypican-3 (rhGPC3) (human) (UniProt P51654); experiment: BLI; antibody captured on anti-mouse IgG-Fc biosensor, antigen as analyte from 100 nM, 1:3 dilutions, global 1:1 fit
[30] = molecular target: recombinant human glypican-3 (rhGPC3) (human) (UniProt P51654); experiment: BLI in-tandem cross-competition; biotinylated antigen on SA biosensor saturated with 150 nM GC33 (competitor), then 150 nM 204
[31] = molecular target: recombinant human glypican-3 (rhGPC3) (human) (UniProt P51654); experiment: BLI in-tandem cross-competition; biotinylated antigen on SA biosensor saturated with 150 nM 204 (self-blocking), then 150 nM 204

Chain of recombinant human glypican-3 (rhGPC3) (human) (P51654 25-559): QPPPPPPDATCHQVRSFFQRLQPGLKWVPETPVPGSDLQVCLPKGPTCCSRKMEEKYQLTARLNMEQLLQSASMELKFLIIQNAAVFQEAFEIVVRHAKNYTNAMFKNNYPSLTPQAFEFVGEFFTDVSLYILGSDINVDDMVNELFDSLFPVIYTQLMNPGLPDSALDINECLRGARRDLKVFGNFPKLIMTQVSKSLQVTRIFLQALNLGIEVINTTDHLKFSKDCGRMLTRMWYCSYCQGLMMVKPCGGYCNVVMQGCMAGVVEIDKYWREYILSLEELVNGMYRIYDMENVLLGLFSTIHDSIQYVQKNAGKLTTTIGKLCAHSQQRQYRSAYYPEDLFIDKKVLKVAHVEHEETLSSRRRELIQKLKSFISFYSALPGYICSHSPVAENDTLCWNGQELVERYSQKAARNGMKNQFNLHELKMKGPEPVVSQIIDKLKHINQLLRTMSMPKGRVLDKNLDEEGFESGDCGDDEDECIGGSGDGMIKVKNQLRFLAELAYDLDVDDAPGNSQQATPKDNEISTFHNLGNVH
Chain of human GPC3 on tumor cells (membrane-associated GPC3 in FFPE xenograft tissue) (human) (P51654 25-554 limits assumed): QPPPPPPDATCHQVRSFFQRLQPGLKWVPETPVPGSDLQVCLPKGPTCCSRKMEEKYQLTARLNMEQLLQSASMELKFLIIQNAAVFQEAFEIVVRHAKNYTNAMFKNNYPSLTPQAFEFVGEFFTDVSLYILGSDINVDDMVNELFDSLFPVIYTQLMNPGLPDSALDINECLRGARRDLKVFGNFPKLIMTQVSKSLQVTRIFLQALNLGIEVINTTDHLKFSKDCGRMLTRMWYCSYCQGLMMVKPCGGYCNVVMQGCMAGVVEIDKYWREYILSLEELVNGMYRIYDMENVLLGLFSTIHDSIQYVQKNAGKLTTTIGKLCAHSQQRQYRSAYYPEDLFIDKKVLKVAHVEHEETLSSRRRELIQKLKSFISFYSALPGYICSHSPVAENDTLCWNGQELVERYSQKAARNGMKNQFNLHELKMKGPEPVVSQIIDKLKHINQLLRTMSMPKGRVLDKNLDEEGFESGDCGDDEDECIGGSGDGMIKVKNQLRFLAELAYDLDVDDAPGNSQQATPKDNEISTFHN

Kd [1]: 1 nM
Molecule: GC33 anti-GPC3 antibody

Membrane-bound GPC3 H-score [2]: 110
Membrane-bound GPC3 H-score [3]: 80
Membrane-bound GPC3 H-score [4]: 265
Membrane-bound GPC3 H-score [5]: 260
Membrane-bound GPC3 H-score [6]: 90
Membrane-bound GPC3 H-score [7]: 75
% Tumor Cells Positive - Membranous Staining, intensity 0 [8]: 5%
% Tumor Cells Positive - Membranous Staining, intensity 1+ [8]: 5%
% Tumor Cells Positive - Membranous Staining, intensity 2+ [8]: 10%
% Tumor Cells Positive - Membranous Staining, intensity 3+ [8]: 80%
H-Score (membranous staining) [8]: 265
Mod/High Intensity (2/3+) [8]: 90%
% Tumor Cells Positive - Membranous Staining, intensity 0 [9]: 0%
% Tumor Cells Positive - Membranous Staining, intensity 1+ [9]: 5%
% Tumor Cells Positive - Membranous Staining, intensity 2+ [9]: 15%
% Tumor Cells Positive - Membranous Staining, intensity 3+ [9]: 80%
H-Score (membranous staining) [9]: 275
Mod/High Intensity (2/3+) [9]: 95%
% Tumor Cells Positive - Membranous Staining, intensity 0 [10]: 5%
% Tumor Cells Positive - Membranous Staining, intensity 1+ [10]: 5%
% Tumor Cells Positive - Membranous Staining, intensity 2+ [10]: 20%
H-Score (membranous staining) [10]: 255
Mod/High Intensity (2/3+) [10]: 90%
% Tumor Cells Positive - Membranous Staining, intensity 0 [11]: 5%
% Tumor Cells Positive - Membranous Staining, intensity 1+ [11]: 20%
% Tumor Cells Positive - Membranous Staining, intensity 2+ [11]: 50%
% Tumor Cells Positive - Membranous Staining, intensity 3+ [11]: 25%
H-Score (membranous staining) [11]: 195
Mod/High Intensity (2/3+) [11]: 75%
% Tumor Cells Positive - Membranous Staining, intensity 0 [12]: 5%
% Tumor Cells Positive - Membranous Staining, intensity 1+ [12]: 10%
% Tumor Cells Positive - Membranous Staining, intensity 2+ [12]: 45%
H-Score (membranous staining) [12]: 220
Mod/High Intensity (2/3+) [12]: 85%
% Tumor Cells Positive - Membranous Staining, intensity 0 [13]: 5%
% Tumor Cells Positive - Membranous Staining, intensity 1+ [13]: 10%
% Tumor Cells Positive - Membranous Staining, intensity 2+ [13]: 5%
% Tumor Cells Positive - Membranous Staining, intensity 3+ [13]: 80%
H-Score (membranous staining) [13]: 260
Mod/High Intensity (2/3+) [13]: 85%
Membrane-associated H-Score [14]: 285
Average Intensity of cytoplasmic staining [15]: 1 +
Average Intensity of cytoplasmic staining [16]: 1 +
Average Intensity of cytoplasmic staining [17]: 1 +
Average Intensity of cytoplasmic staining [18]: 2 +
koff [19]: 0.00053 s⁻¹
kon [19]: 170000 M⁻¹ s⁻¹
Membrane-associated H-Score [20]: 90
Membrane-associated H-Score [21]: 130
Kd [22]: 3 nM
% Tumor Cells Positive - Membranous Staining, intensity 3+ [23]: 45%
% Tumor Cells Positive - Membranous Staining, intensity 3+ [24]: 20%
Molecule: 1G12 anti-GPC3 monoclonal antibody

binding result [25]: no binding
binding result [26]: no binding
koff [27]: 0.0021 s⁻¹
kon [27]: 820000 M⁻¹ s⁻¹
% Binding of Competing Antibody [28]: 100%
Kd [29]: 2.5 nM
% Binding of Competing Antibody [30]: 89.9%
% Binding of Competing Antibody [31]: 18.2%
B1: 204 monoclonal antibody (mouse anti-human GPC3) (antibody, IgG2b, V domains shown)
VH: EVQLQQSGPELVKPGASVKISCKTSGYTFTEYAMHWVKQSHGKSLEWIGGINPNNGVTTYNQRFKGKATLTVDKSSSTAYMELRSLTSEDSAVYYCARGLLWYAYWGQGTLVTVSA
VL: DIKMTQSPSSMYASLGERVTITCKASQDINSYLSWFQQKPGKSPKTLIYRANRLVDGVPSRFSGSGSGQDYSLTISSLEYEDMGIYYCLQYDEFPLTFGAGTKLELK
notes: also called GPC.204
